From patent US10925971B2, “Methods of treating PRLR positive breast cancer” (Regeneron Pharmaceuticals, Inc., priority 2016, dated 2021)

Target: T1, hPRLR-mmH (SEQ ID NO:406) (Homo sapiens, UniProt P16471)
T1 construct: this experiment was conducted with a truncated form of PRLR (i.e., hPRLR-mmH)
Experiment: Epitope mapping by hydrogen/deuterium exchange with MALDI-TOF MS
Assay type: binding
Protocol: Experiments were conducted to determine the amino acid residues of PRLR with which H1H6958N2 interacts. For this purpose hydrogen/deuterium (H/D) exchange epitope mapping was carried out. A general description of the H/D exchange method is set forth in e.g., Ehring (1999) Analytical Biochemistry 267(2):252-259; and Engen and Smith (2001) Anal. Chem. 73:256A-265A.
To map the binding epitope(s) of antibody H1H6958N2 on hPRLR via H/D exchange, a construct comprising a recombinant extracellular domain of hPRLR with a C-terminal myc-myc-hexahistidine tag (hPRLR-mmH; SEQ ID NO: SEQ ID NO:406) was buffer exchanged to PBS with a final concentration of 8 mg/mL, and antibody H1H6958N2 was covalently attached to N-hydroxysuccinimide (NHS) agarose beads (GE Lifescience)
In the ‘on-solution/off-beads’ (on-exchange in solution followed by off-exchange on beads) experiment, the hPRLR was deuterated for 5 min or 10 min in PBS buffer prepared with D2O, and then bound to H1H6958N2 beads through a 2 min incubation. The hPRLR-bound beads were washed with PBS aqueous buffer (prepared with H2O) and incubated PBS buffer for half of the on-exchange time. After the off-exchange, the bound hPRLR was eluted from beads with an ice-cold low pH TFA solution. The eluted hPRLR was then digested with immobilized pepsin (Thermo Scientific) for 5 min. The resulting peptides were desalted using ZipTip® chromatographic pipette tips and immediately analyzed by UltrafleXtreme matrix assisted laser desorption ionization time of flight (MALDI-TOF)-TOF mass spectrometry (MS).
In the ‘on-beads/off-beads’ (on-exchange on beads followed by off-exchange on beads) experiment, hPRLR was first bound to H1H6958N2 beads and then incubated for 5 min or 10 min in D2O for on-exchange. The following steps (off-exchange, pepsin digestion, and MS analysis) were carried out as described for the ‘on-solution/off-beads’ procedure. The centroid values or average mass-to-charge ratios (m/z) of all the detected peptides were calculated and compared between these two sets of experiments.
The results are summarized in Table 29 which provides a comparison of the centroid m/z values for all the detected peptides identified by liquid chromatography and MS following the H/D exchange and peptic digest procedure described above. For purposes of the present Example, a positive difference (A) of at least 0.20 m/z in both experiments indicates amino acids protected by antibody binding. Segments meeting this criterion are indicated by bold text and an asterisk (*) in Table 29. [Note that, although this experiment was conducted with a truncated form of PRLR (i.e., hPRLR-mmH; SEQ ID NO: 406), residue numbering in the far left column of Table 29 has been adjusted to correspond to the amino acid sequence of the full-length PRLR protein represented by SEQ ID NO: 404.]

[1] = hPRLR peptide residues 61-71 of SEQ ID NO: 404, Experiment I 5 min on-/2.5 min off-exchange
[2] = hPRLR peptide residues 61-71 of SEQ ID NO: 404, Experiment II 10 min on-/5 min off-exchange
[3] = hPRLR peptide residues 64-71 of SEQ ID NO: 404, Experiment I 5 min on-/2.5 min off-exchange
[4] = hPRLR peptide residues 64-71 of SEQ ID NO: 404, Experiment II 10 min on-/5 min off-exchange
[5] = hPRLR peptide residues 64-72 of SEQ ID NO: 404, Experiment I 5 min on-/2.5 min off-exchange
[6] = hPRLR peptide residues 64-72 of SEQ ID NO: 404, Experiment II 10 min on-/5 min off-exchange
[7] = hPRLR peptide residues 72-94* of SEQ ID NO: 404 (* = protected by antibody binding), Experiment I 5 min on-/2.5 min off-exchange
[8] = hPRLR peptide residues 72-94* of SEQ ID NO: 404 (* = protected by antibody binding), Experiment II 10 min on-/5 min off-exchange
[9] = hPRLR peptide residues 72-95* of SEQ ID NO: 404 (* = protected by antibody binding), Experiment I 5 min on-/2.5 min off-exchange
[10] = hPRLR peptide residues 72-95* of SEQ ID NO: 404 (* = protected by antibody binding), Experiment II 10 min on-/5 min off-exchange
[11] = hPRLR peptide residues 96-101* of SEQ ID NO: 404 (* = protected by antibody binding), Experiment I 5 min on-/2.5 min off-exchange
[12] = hPRLR peptide residues 96-101* of SEQ ID NO: 404 (* = protected by antibody binding), Experiment II 10 min on-/5 min off-exchange
[13] = hPRLR peptide residues 96-102* of SEQ ID NO: 404 (* = protected by antibody binding), Experiment I 5 min on-/2.5 min off-exchange
[14] = hPRLR peptide residues 96-102* of SEQ ID NO: 404 (* = protected by antibody binding), Experiment II 10 min on-/5 min off-exchange
[15] = hPRLR peptide residues 133-147 of SEQ ID NO: 404, Experiment I 5 min on-/2.5 min off-exchange
[16] = hPRLR peptide residues 133-147 of SEQ ID NO: 404, Experiment II 10 min on-/5 min off-exchange
[17] = hPRLR peptide residues 134-147 of SEQ ID NO: 404, Experiment I 5 min on-/2.5 min off-exchange
[18] = hPRLR peptide residues 134-147 of SEQ ID NO: 404, Experiment II 10 min on-/5 min off-exchange
[19] = hPRLR peptide residues 135-147 of SEQ ID NO: 404, Experiment I 5 min on-/2.5 min off-exchange
[20] = hPRLR peptide residues 135-147 of SEQ ID NO: 404, Experiment II 10 min on-/5 min off-exchange
[21] = hPRLR peptide residues 136-147 of SEQ ID NO: 404, Experiment I 5 min on-/2.5 min off-exchange
[22] = hPRLR peptide residues 136-147 of SEQ ID NO: 404, Experiment II 10 min on-/5 min off-exchange
[23] = hPRLR peptide residues 137-147 of SEQ ID NO: 404, Experiment I 5 min on-/2.5 min off-exchange
[24] = hPRLR peptide residues 137-147 of SEQ ID NO: 404, Experiment II 10 min on-/5 min off-exchange
[25] = hPRLR peptide residues 168-179 of SEQ ID NO: 404, Experiment I 5 min on-/2.5 min off-exchange
[26] = hPRLR peptide residues 168-179 of SEQ ID NO: 404, Experiment II 10 min on-/5 min off-exchange
[27] = hPRLR peptide residues 168-180 of SEQ ID NO: 404, Experiment I 5 min on-/2.5 min off-exchange

T1 sequence (P16471 with tags, fused parts or gaps): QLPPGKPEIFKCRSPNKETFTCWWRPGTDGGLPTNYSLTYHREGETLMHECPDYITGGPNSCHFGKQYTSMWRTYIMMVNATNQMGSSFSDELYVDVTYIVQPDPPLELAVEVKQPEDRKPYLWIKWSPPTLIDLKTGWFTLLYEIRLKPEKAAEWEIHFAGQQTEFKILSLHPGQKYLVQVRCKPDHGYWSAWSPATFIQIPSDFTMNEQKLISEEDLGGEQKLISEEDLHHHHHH

B1: H1H6958N2: anti-PRLR antibody, receptor blocking, human IgG1 Fc form of H2M6958N2 of Table 1; HCVR/LCVR SEQ ID NOs 290/298 (antibody, V domains shown)
VH: QVQLVESGGGVVQPGRSLRLSCGASGFTFRNYGMQWVRQGPGKGLEWVTLISFDGNDKYYADSVKGRFTISRDNSKNTLFLQMNSLRTEDTAVYYCARGGDFDYWGQGTLVTVSS
VL: DIQMTQSPSSLSASVGDRVTITCRASQDIRKDLGWYQQKPGKAPKRLIYAASSLHSGVPSRFSGSGSGTEFTLTISSLQPEDFATYYCLQHNSYPMYTFGQGTKLEIK
For B1, the “epitope of PRLR with which the antibody interacts” value (delta centroid greater than 0.20 m/z in both experiments) was “amino acids 72 to 102 of SEQ ID NO: 404”, the “centroid m/z, on-beads/off-beads” value [1] was 1306.50 m/z and the “centroid m/z, on-solution/off beads” value [1] was 1306.39 m/z. For the same molecule, the “Δ (centroid m/z difference)” value [1] was −0.10 m/z, the “centroid m/z, on-beads/off-beads” value [2] was 1306.38 m/z and the “centroid m/z, on-solution/off beads” value [2] was 1306.34 m/z. The “Δ (centroid m/z difference)” value [2] was −0.04 m/z, the “centroid m/z, on-beads/off-beads” value [3] was 1005.05 m/z and the “centroid m/z, on-solution/off beads” value [3] was 1005.13 m/z. For the same molecule, the “Δ (centroid m/z difference)” value [3] was 0.07 m/z, the “centroid m/z, on-beads/off-beads” value [4] was 1005.18 m/z and the “centroid m/z, on-solution/off beads” value [4] was 1005.13 m/z. For the same molecule, the “Δ (centroid m/z difference)” value [4] was −0.05 m/z, the “centroid m/z, on-beads/off-beads” value [5] was 1136.15 m/z and the “centroid m/z, on-solution/off beads” value [5] was 1136.16 m/z. The “Δ (centroid m/z difference)” value [5] was 0.01 m/z, the “centroid m/z, on-beads/off-beads” value [6] was 1136.49 m/z and the “centroid m/z, on-solution/off beads” value [6] was 1136.33 m/z. For the same molecule, the “Δ (centroid m/z difference)” value [6] was −0.16 m/z, the “centroid m/z, on-beads/off-beads” value [7] was 2572.17 m/z and the “centroid m/z, on-solution/off beads” value [7] was 2573.91 m/z. The “Δ (centroid m/z difference)” value [7] was 1.74 m/z, the “centroid m/z, on-beads/off-beads” value [8] was 2572.12 m/z and the “centroid m/z, on-solution/off beads” value [8] was 2573.74 m/z. The “Δ (centroid m/z difference)” value [8] was 1.62 m/z, the “centroid m/z, on-beads/off-beads” value [9] was 2703.43 m/z and the “centroid m/z, on-solution/off beads” value [9] was 2705.49 m/z. For the same molecule, the “Δ (centroid m/z difference)” value [9] was 2.06 m/z, the “centroid m/z, on-beads/off-beads” value [10] was 2703.70 m/z and the “centroid m/z, on-solution/off beads” value [10] was 2705.29 m/z. The “Δ (centroid m/z difference)” value [10] was 1.60 m/z, the “centroid m/z, on-beads/off-beads” value [11] was 870.20 m/z and the “centroid m/z, on-solution/off beads” value [11] was 870.70 m/z. The “centroid m/z, on-beads/off-beads” value [12] was 870.20 m/z, the “centroid m/z, on-solution/off beads” value [12] was 870.71 m/z and the “Δ (centroid m/z difference)” value [12] was 0.52 m/z. The “centroid m/z, on-beads/off-beads” value [13] was 1001.22 m/z, the “centroid m/z, on-solution/off beads” value [13] was 1001.59 m/z and the “Δ (centroid m/z difference)” value [13] was 0.37 m/z. The “centroid m/z, on-beads/off-beads” value [14] was 1001.14 m/z, the “centroid m/z, on-solution/off beads” value [14] was 1001.62 m/z and the “Δ (centroid m/z difference)” value [14] was 0.48 m/z. The “centroid m/z, on-beads/off-beads” value [15] was 1786.37 m/z, the “centroid m/z, on-solution/off beads” value [15] was 1786.59 m/z and the “Δ (centroid m/z difference)” value [15] was 0.22 m/z. For the same molecule, the “centroid m/z, on-beads/off-beads” value [16] was 1786.52 m/z, the “centroid m/z, on-solution/off beads” value [16] was 1786.55 m/z and the “Δ (centroid m/z difference)” value [16] was 0.02 m/z. For the same molecule, the “centroid m/z, on-beads/off-beads” value [17] was 1673.29 m/z, the “centroid m/z, on-solution/off beads” value [17] was 1673.36 m/z and the “Δ (centroid m/z difference)” value [17] was 0.07 m/z. For the same molecule, the “centroid m/z, on-beads/off-beads” value [18] was 1673.39 m/z, the “centroid m/z, on-solution/off beads” value [18] was 1673.50 m/z and the “Δ (centroid m/z difference)” value [18] was 0.11 m/z. For the same molecule, the “centroid m/z, on-beads/off-beads” value [19] was 1602.02 m/z, the “centroid m/z, on-solution/off beads” value [19] was 1602.15 m/z and the “Δ (centroid m/z difference)” value [19] was 0.13 m/z. The “centroid m/z, on-beads/off-beads” value [20] was 1602.04 m/z, the “centroid m/z, on-solution/off beads” value [20] was 1602.15 m/z and the “Δ (centroid m/z difference)” value [20] was 0.11 m/z. For the same molecule, the “centroid m/z, on-beads/off-beads” value [21] was 1502.88 m/z, the “centroid m/z, on-solution/off beads” value [21] was 1502.85 m/z and the “Δ (centroid m/z difference)” value [21] was −0.03 m/z. The “centroid m/z, on-beads/off-beads” value [22] was 1502.88 m/z, the “centroid m/z, on-solution/off beads” value [22] was 1502.79 m/z and the “Δ (centroid m/z difference)” value [22] was −0.09 m/z. The “centroid m/z, on-beads/off-beads” value [23] was 1373.68 m/z, the “centroid m/z, on-solution/off beads” value [23] was 1373.78 m/z and the “Δ (centroid m/z difference)” value [23] was 0.09 m/z. The “centroid m/z, on-beads/off-beads” value [24] was 1373.84 m/z, the “centroid m/z, on-solution/off beads” value [24] was 1373.80 m/z and the “Δ (centroid m/z difference)” value [24] was −0.04 m/z. For the same molecule, the “centroid m/z, on-beads/off-beads” value [25] was 1447.71 m/z, the “centroid m/z, on-solution/off beads” value [25] was 1447.73 m/z and the “Δ (centroid m/z difference)” value [25] was 0.02 m/z. The “centroid m/z, on-beads/off-beads” value [26] was 1447.78 m/z, the “centroid m/z, on-solution/off beads” value [26] was 1447.76 m/z and the “Δ (centroid m/z difference)” value [26] was −0.02 m/z. The “centroid m/z, on-beads/off-beads” value [27] was 1633.66 m/z and the “centroid m/z, on-solution/off beads” value [27] was 1633.59 m/z.
